Measurements as given in publication doi:10.1101/2024.02.16.580631 (bioRxiv, 2024).

Biological target: the molecule itself
Experiment: crystal structure

B1: Nucleoside diphosphate kinase B (NDPKB), human (enzyme)
chain: ANLERTFIAIKPDGVQRGLVGEIIKRFEQKGFRLVAMKFLRASEEHLKQHYIDLKDRPFFPGLVKYMNSGPVVAMVWEGLNVVKTGRVMLGETNPADSKPGTIRGDFCIQVGRNIIHGSDSVKSAEKEISLWFKPEELVDYKSCAHDWVYE
modifications: phosphorylated histidine at 118 (His 118-P) in the crystal
stoichiometry N: 6
